# From publication PMC6449974 (2019)
# Molecular target: Cyclophilin A (Homo sapiens, UniProt P62937)
# Assay: SPR
binder,measurement,value
HIV-1 capsid protein CA (unassembled) (protein) not shown,Kd,~27 µM
